Substitutions are numbered along the chain they refer to. Names and notes keep the numbering of the source. Where no end group is shown, it is not given here.
What was measured:
[1] = biological target: GST-Atg19 CTD F376A, F379A, L384A, L387A (S. cerevisiae) (UniProt P35193); experiment: microscopy-based protein-protein interaction assay on beads; glutathione-Sepharose beads coated with GST-Atg19 CTDs, washed, in 1 μM EGFP-Atg8 solution, 25 mM HEPES pH 7.5, 150 mM NaCl, 1 mM DTT; imaged by spinning disc microscopy without washing; signal normalized to wild type
[2] = biological target: GST-Atg19 CTD W412A (S. cerevisiae) (UniProt P35193); experiment: as above
[3] = biological target: GST-Atg19 CTD L384A, L387A (S. cerevisiae) (UniProt P35193); experiment: as above
Atg8 [4] = biological target: T1, Atg8 (Saccharomyces cerevisiae, UniProt P38182, K26P); experiment: biochemical; type: binding
T1 construct: Atg8 1–117; GST (N, cleaved yes); made in house; host or cells: Escherichia coli Rosetta pLysS DE3
Excerpt: To test this hypothesis, we titrated 12 amino acid-long peptides containing the respective LIR-like motif in the center (Fig. 1) into labeled Atg8 and recorded the CSCs (Fig. 5). […] We attempted to determine a more exact Kd for the FYSF and LPEL peptides by isothermal titration calorimetry.
To corroborate our NMR-based interactions studies, we attempted to measure their interaction with Atg8 by isothermal titration calorimetry.

EGFP-Atg8, P38182 = biological target: T2, EGFP-Atg8, P38182; experiment: microscopy-based protein-protein interaction assay (GST-Atg19 CTD on glutathione-Sepharose beads, spinning disc microscopy); details: chain shown with the change; 1 μm EGFP-Atg8 solution; parent: 100
T2 chain: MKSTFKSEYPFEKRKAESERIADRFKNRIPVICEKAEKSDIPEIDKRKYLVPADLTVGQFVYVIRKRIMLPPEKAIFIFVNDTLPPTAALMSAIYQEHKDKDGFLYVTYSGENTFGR

[5] = biological target: Atg8 used for isothermal titration calorimetry (S. cerevisiae) (UniProt P38182); experiment: ITC; peptides titrated, Atg8; conditions not given
[6] = biological target: T3, Atg8 K26P, 15N isotope-labeled (S. cerevisiae, UniProt P38182 1-117, K26P, 15N isotope-labeled); experiment: NMR titration; unlabeled Atg19 CTD or peptide titrated into 15N-labeled Atg8 K26P; 2D 15N HSQC at 25 °C; Atg8 135-500 μM, Atg19 C terminus 15-1000 μM; Kd estimated as the median of one-site saturation fits of CSCs of four to twelve Atg8 residues; details: both partners purified
T3 construct: Atg8, S. cerevisiae, amino acids 1-117, K26P mutant used for stability in NMR; Cloned in pGEX-4-T1; GST cut off with thrombin; also called [15N]Atg8; K26P mutant of Atg8; source: E. coli Rosetta pLysS DE3 in M9 minimal medium with [15N]ammonium chloride, purified (glutathione beads, thrombin, SEC)
T3 sequence (looked up): T2 chain with K26P

EGFP-Atg8 = experiment: Microscopy-based protein-protein interaction assay: EGFP-Atg8 recruited to glutathione-Sepharose beads coated with GST-Atg19 CTD; type: binding, Saccharomyces cerevisiae; details: GST-tagged Atg19 CTD on glutathione-Sepharose beads, 1 μM EGFP-Atg8, 30 min, spinning disc microscopy; mean of 3 experiments
Excerpt: To confirm the contributions of the ^376FYSF^379 and ^384LPEL^387 motifs for Atg8 binding, we employed a microscopy-based protein-protein interaction assay. To this end, EGFP-Atg8 in solution was recruited to glutathione-Sepharose beads coated with GST-Atg19 C termini (Fig. 6, A and B). Atg8 bound efficiently to beads coated with the wild-type C terminus. Upon introduction of the W412A mutation, the Atg8 signal on the beads dropped to 23%.
FIGURE 6. Accessory LIR motifs contribute to Atg8 binding in a microscopy-based interaction assay. A, glutathione-Sepharose beads were coated with GST-tagged Atg19 CTDs, washed, incubated in a 1 μM EGFP-Atg8 solution, and imaged by spinning disc microscopy. B, signal intensity of EGFP-Atg8 decreased for the LIR and accessory LIR mutants. C, quantification of the EGFP signal (mean ± S.D. from 3 experiments) on GST-Atg19 CTD-coated beads normalized to the mean signal on wild-type GST-Atg19 CTD-coated beads. Scale bars = 30 μm. TEXT PRINTED IN THE PICTURE: (B) W412A: relative binding (%): 23% | (B) L384, L387A: relative binding (%): 47% | (B) F376, F379, L384, L387A: relative binding (%): 25% | (B) L384, L387, W412A: relative binding (%): 7% | (B) F376, F379, L384, L387, W412A: relative binding (%): 2%
Glutathione-Sepharose 4B beads (GE Healthcare) were incubated with GST-tagged Atg19 C terminus for 1 h at 4 °C. After washing the beads three times with 25 mM HEPES (pH 7.5), 150 mM NaCl, and 1 mM DTT, 1 μl of a 1:1 resuspension of glutathione beads in protein solution was added to a 1 μM solution of EGFP-Atg8 30 min prior to imaging. Microscopic images were acquired using a confocal spinning disc microscope (Visitron) and processed with ImageJ software.

Atg8 [7] = details: ITC-based Kd determination; read-out: Kd by ITC, full-length Atg19; cited from earlier work

T1 sequence (P38182 whole entry K26P): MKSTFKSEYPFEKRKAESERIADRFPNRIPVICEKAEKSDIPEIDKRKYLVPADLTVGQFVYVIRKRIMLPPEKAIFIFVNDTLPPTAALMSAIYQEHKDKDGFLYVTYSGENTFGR

EGFP-Atg8 (from UniProt P38182 1-116) (natural protein)
EGFP-Atg8 signal on beads, percent of wild type [1]: 25%
EGFP-Atg8 signal on beads, percent of wild type [2]: 23%
EGFP-Atg8 signal on beads, percent of wild type [3]: 47%

GDDNEKALTWEEL [canonical LIR peptide]
Kd (Atg8 [4]): 2.8 µM

B1: GST-Atg19 CTD, wild type, P35193 L384A; L387A; W412A (protein)
chain: SAESLQASQEPFYSFQIDTAPEADDSSIISTSISLSYDGDDNEKALTAEEL
percent of parent (EGFP-Atg8, P38182): 7%

B2: GST-Atg19 CTD, wild type, P35193 F376A; F379A; L384A; L387A; W412A (protein)
chain: B1 chain with F12A, F15A
percent of parent (EGFP-Atg8, P38182): 2%

GDDNEKALTWEEL [peptide containing the canonical 412WEEL415 motif (Atg19, 403…415)]
Kd [5]: 2.8 µM

B3: Atg19 C-terminal domain (amino acids 365-415), wild type (domain or fragment, S. cerevisiae, UniProt P35193 365-415, looked up)
chain: B1 chain with A20L, A23L, A48W
notes: Atg19, S. cerevisiae, C-terminal domain, amino acids 365-415; also called Atg19 CTD; wild-type Atg19 C terminus; source: E. coli Rosetta pLysS DE3, purified (glutathione beads, thrombin, SEC)
Kd [6]: ~130 µM

B4: Atg19 CTD F376A, F379A, W412A (amino acids 365-415) (domain or fragment, S. cerevisiae, UniProt P35193 365-415, looked up)
chain: B1 chain with F12A, F15A, A20L, A23L
notes: Atg19, S. cerevisiae, C-terminal domain, amino acids 365-415, F376A, F379A, W412A; also called FFWA; triple mutant C terminus; source: E. coli Rosetta pLysS DE3, purified (glutathione beads, thrombin, SEC)
Kd [6]: 290 µM

B5: Atg19 CTD L384A, L387A (amino acids 365-415) (domain or fragment, S. cerevisiae, UniProt P35193 365-415, looked up)
chain: B1 chain with A48W
notes: Atg19, S. cerevisiae, C-terminal domain, amino acids 365-415, L384A, L387A; also called LLA; source: E. coli Rosetta pLysS DE3, purified (glutathione beads, thrombin, SEC)
Kd [6]: ~70 µM

B6: Atg19 W412A CTD (amino acids 365-415) (domain or fragment, S. cerevisiae, UniProt P35193 365-415, looked up)
chain: B1 chain with A20L, A23L
notes: Atg19, S. cerevisiae, C-terminal domain, amino acids 365-415, W412A; also called WA; W412A mutant Atg19 CTD; source: E. coli Rosetta pLysS DE3, purified (glutathione beads, thrombin, SEC)
Kd [6]: 180 µM

B7: Atg19 CTD (amino acids 365-407) F376A, F379A, L384A, L387A (domain or fragment, S. cerevisiae, UniProt P35193 365-407, looked up)
chain: SAESLQASQEPAYSAQIDTAPEADDSSIISTSISLSYDGDDNE
notes: Atg19, S. cerevisiae, amino acids 365-407 (last eight amino acids 408-415 deleted), F376A, F379A, L384A, L387A; also called FFLLΔ; source: E. coli Rosetta pLysS DE3, purified (glutathione beads, thrombin, SEC)
Kd [6]: 600 µM

SQEPFYSFQIDT [12 amino acid peptide containing 376FYSF379 of Atg19]
Kd [6]: ~330 µM

QIDTLPELDDSS [12 amino acid peptide containing 384LPEL387 of Atg19]
Kd [6]: ~590 µM

B8: W412A (protein, UniProt P35193 1-415, looked up, variant W412A)
Autophagy-related protein 19: MNNSKTNQQMNTSMGYPLTVYDECNKFQLIVPTLDANIMLWCIGQLSLLNDSNGCKHLFWQPNDKSNVRILLNNYDYGHLFKYLQCQRKCSVYIGEGTLKKYNLTISTSFDNFLDLTPSEEKESLCREDAHEDPVSPKAGSEEEISPNSTSNVVVSRECLDNFMKQLLKLEESLNKLELEQKVTNKEPNHRISGTIDIPEDRSELVNFFTELKTVKQLEDVFQRYHDYERLSQECDSKTEIASDHSKKETKIEVEPPNERSLQITMNQRDNSLYFQLFNNTNSVLAGNCKLKFTDAGDKPTTQIIDMGPHEIGIKEYKEYRYFPYALDLEAGSTIEIENQYGEVIFLGKYGSSPMINLRPPSRLSAESLQASQEPFYSFQIDTLPELDDSSIISTSISLSYDGDDNEKALTAEEL
relative binding (EGFP-Atg8 signal on beads, normalized to wild-type GST-Atg19 CTD) (EGFP-Atg8): 23%

B9: L384A, L387A (protein, UniProt P35193 1-415, looked up, variant L384A L387A)
Autophagy-related protein 19: B8 Autophagy-related protein 19 with L384A, L387A, A412W
relative binding (EGFP-Atg8 signal on beads, normalized to wild-type GST-Atg19 CTD) (EGFP-Atg8): 47%

B10: F376, F379, L384, L387A (protein, UniProt P35193 1-415, looked up, variant F376A F379A L384A L387A)
Autophagy-related protein 19: B8 Autophagy-related protein 19 with F376A, F379A, L384A, L387A, A412W
relative binding (EGFP-Atg8 signal on beads, normalized to wild-type GST-Atg19 CTD) (EGFP-Atg8): 25%

B11: L384, L387, W412A (protein, UniProt P35193 1-415, looked up, variant L384A L387A W412A)
Autophagy-related protein 19: B8 Autophagy-related protein 19 with L384A, L387A
relative binding (EGFP-Atg8 signal on beads, normalized to wild-type GST-Atg19 CTD) (EGFP-Atg8): 7%

B12: full-length Atg19: full-length Atg19 cargo receptor of S. cerevisiae (protein, UniProt P35193 1-415, looked up)
chain: B8 Autophagy-related protein 19 with A412W
modifications: full-length
notes: full-length Atg19 cargo receptor of S. cerevisiae
Kd (Atg8 [7]): 35 µM
